B1: raccoon dog ACE2 ectodomain fused with mFc (Fc fusion)
chain: QSTEDLVNTFLEKFNYEAEELSYQSSLASWNYNTNITDENLQKMNNAGAKWSAFYEEQSKLAKTYPLEEIQDSTVKRQLRALQHSGSSVLSADKNQRLNTILNSMSTIYSTGKACNPSNPQECLLLEPGLDDIMENSKDYNERLWAWEGWRSEVGKQLRPLYEEYVALKNEMARANNYEDYGDYWRGDYEEEWENGYNYSRNQLIDDVEHTFTQIMPLYQHLHAYVRTKLMDTYPSYISPTGCLPAHLLGDMWGRFWTNLYPLTVPFGQKPNIDVTNAMVNQSWDARKIFKEAEKFFVSVGLPNMTQGFWENSMLTEPSDSWKVVCHPTAWDLGRGDFRIKMCTKVTMDDFLTAHHEMGHIQYDMAYAAQPFLLRNGANEGFHEAVGEIMSLSAATPNHLKNIGLLPPSFFEDSETEINFLLKQALTIVGTLPFTYMLEKWRWMVFKGEIPKDQWMKTWWEMKRNIVGVVEPVPHDETYCDPASLFHVANDYSFIRYYTRTIYQFQFQEALCQIAKHEGPLHKCDISNSSEAGQKLLEMLKLGKSKPWTYALEIVVGAKNMDVRPLLNYFEPLFTWLKEQNRNSFVGWNTDWSPYADQSIKVRISLKSALGEKAYEWNNNEMYLFRSSIAYAMRQYFSEVKNQTIPFVEDNVWVSDLKPRISFNFFVTSPGNVSDIIPRTEVEEAIRMYRSRINDVFRLDDNSLEFLGIQPTLGPPYEPPVT
B2: dog ACE2 ectodomain fused with mFc (Fc fusion)
chain: QSTEDLVKTFLEKFNYEAEELSYQSSLASWNYNINITDENVQKMNNAGAKWSAFYEEQSKLAKTYPLEEIQDSTVKRQLRALQHSGSSVLSADKNQRLNTILNSMSTIYSTGKACNPSNPQECLLLEPGLDDIMENSKDYNERLWAWEGWRSEVGKQLRPLYEEYVALKNEMARANNYEDYGDYWRGDYEEEWENGYNYSRNQLIDDVEHTFTQIMPLYQHLHAYVRTKLMDTYPSYISPTGCLPAHLLGDMWGRFWTNLYPLTVPFGQKPNIDVTNAMVNQSWDARKIFKEAEKFFVSVGLPNMTQEFWENSMLTEPSDSRKVVCHPTAWDLGKGDFRIKMCTKVTMDDFLTAHHEMGHIQYDMAYAAQPFLLRNGANEGFHEAVGEIMSLSAATPNHLKNIGLLPPSFFEDSETEINFLLKQALTIVGTLPFTYMLEKWRWMVFKGEIPKDQWMKTWWEMKRNIVGVVEPVPHDETYCDPASLFHVANDYSFIRYYTRTIYQFQFQEALCQIAKHEGPLHKCDISNSSEAGQKLLEMLKLGKSKPWTYALEIVVGAKNMDVRPLLNYFEPLFTWLKEQNRNSFVGWNTDWSPYADQSIKVRISLKSALGEKAYEWNNNEMYLFRSSIAYAMRQYFSEVKNQTIPFVEDNVWVSDLKPRISFNFFVTSPGNVSDIIPRTEVEEAIRMYRSRINDVFRLDDNSLEFLGIQPTLGPPYEPPVT
B3: fox ACE2 ectodomain fused with mFc (Fc fusion)
chain: QSTEDLVNTFLEKFNYEAEELSYQSSLASWDYNTNISDENVQKMNNAGAKWSAFYEEQSKLAKTYPLEEIQDSTVKRQLRALQHSGSSVLSADKNQRLNTILNSMSTIYSTGKACNPSNPQECLLLEPGLDDIMENSKDYNERLWAWEGWRSEVGKQLRPLYEEYVALKNEMARANNYEDYGDYWRGDYEEEWENGYNYSRNQLIDDVEHTFTQIMPLYQHLHAYVRTKLMDTYPSYISPTGCLPAHLLGDMWGRFWTNLYPLTVPFGQKPNIDVTNAMVNQSWDARKIFKEAEKFFVSVGLPNMTQGFWENSMLTEPSDSRKVVCHPTAWDLGKGDFRIKMCTKVTMDDFLTAHHEMGHIQYDMAYAAQPFLLRNGANEGFHEAVGEIMSLSAATPNHLKNIGLLPPSFFEDSETEINFLLKQALTIVGTLPFTYMLEKWRWMVFKGEIPKDQWMKTWWEMKRNIVGVVEPVPHDETYCDPASLFHVANDYSFIRYYTRTIYQFQFQEALCQIAKHEGPLHKCDISNSSEAGQKLLEMLKLGKSKPWTYALEIVVGAKNMDVRPLLNYFEPLFTWLKEQNRNSFVGWNTDWSPYADQSIKVRISLKSALGEKAYEWNNNEMYLFRSSIAYAMRRYFSEVKKQTIPFVEDNVWVSDLKPRISFNFFVTSPGNVSDIIPRTEVEKAIRMYRGRINDVFRLDDNSLEFLGIQPTLGPPYEPPVT
B4: rabbit ACE2 ectodomain fused with mFc (Fc fusion)
chain: QSTIEELAKTFLEKFNQEAEDLSYQSALASWDYNTNITEENVQKMNDAEAKWSAFYEEQSKLAKTYPSQEVQNLTVKRQLQALQQSGSSALSADKSKQLNTILSTMSTIYSTGKVCNQSNPQECFLLEPGLDEIMAKSTDYNERLWAWEGWRSVVGKQLRPLYEEYVVLKNEMARANNYEDYGDYWRADYEAEGADGYDYSRSQLIDDVERTFSEIKPLYEQLHAFVRTKLMDAYPSRISPTGCLPAHLLGDMWGRFWTNLYSLTVPFGQKPNIDVTDTMVNQGWDAERIFKEAEKFFVSVGLPSMTQGFWENSMLTEPGDGRKVVCHPTAWDLGKGDFRIKMCTKVTMDNFLTAHHEMGHIQYDMAYATQPFLLRNGANEGFHEAVGEIMSLSAATPEHLKSIGLLPYDFHEDNETEINFLLKQALTIVGTLPFTYMLEKWRWMVFKGEIPKEQWMQKWWEMKREIVGVVEPMPHDETYCDPAALFHVANDYSFIRYYTRTIYQFQFQEALCQAAQHEGPLHKCDISNSTEAGQKLLNMLRLGRSEPWTLALENVVGAKNMDVRPLLNYFEPLFTWLKEQNRNSFVGWSTEWTPYADQSIKVRISLKTALGDQAYEWNDSEMYLFRSSVAYAMRKYFSEVKNQTILFGEEDVRVSDLKPRISFNFFVTAPNNVNDIIPRNEVEEAISMSRSRINDIFRLDDNSLEFVGIQPTLEPPYESPVP
B5: goat ACE2 ectodomain fused with mFc (Fc fusion)
chain: QSTTEEQAKTFLEKFNHEAEDLSYQSSLASWNYNTNITDENVQKMNEARAKWSAFYEEQSRMARTYSLEEIQNLTLKRQLKALQHSGTSVLSAEKSKRLNTILNKMSTIYSTGKVLDPNTQECLALEPGLDDIMENSRDYNRRLWAWEGWRAEVGKQLRPLYEEYVVLENEMARANNYEDYGDYWRGDYEVTGAGDYDYSRDQLMKDVERTFAEIKPLYEQLHAYVRAKLMNTYPSYISPTGCLPAHLLGDMWGRFWTNLYSLTVPFEHKPSIDVTEKMKNQSWDAERIFKEAEKFFVSIGLPYMTQGFWNNSMLTEPGDGRKVVCHPTAWDLGKGDFRIKMCTKVTMDDFLTAHHEMGHIQYDMAYATQPYLLRNGANEGFHEAVGEIMSLSAATPHYLKALGLLAPDFYEDNETEINFLLKQALTIVGTLPFTYMLEKWRWMVFKGEIPKQQWMEKWWEMKREIVGVVEPLPHDETYCDPACLFHVAEDYSFIRYYTRTIYQFQFHEALCKTAKHEGALFKCDISNSTEAGQRLLQMLRLGKSEPWTLALENIVGIKTMDVKPLLNYFEPLFTWLKEQNRNSFVGWSTEWTPYSDQSIKVRISLKSALGENAYEWNDNEMYLFRSSVAYAMRKYFLEDRNETIPFGEENVWVSDKKPRISFKFFVTSPNNVSDIIPRTEVENAIRLCRDRINDAFQLDDNSLEFLGIQPTLRPPYEPP
B6: horse ACE2 ectodomain fused with mFc (Fc fusion)
chain: QSTTEDLAKTFLEKFNSEAEELSHQSSLASWSYNTNITDENVQKMNEAGARWSAFYEEQCKLAKTYPLEEIQNLTVKRQLQALQQSGSSVLSADKSKRLNEILNTMSTIYSTGKVCNPSNPQECLLLEPGLDAIMENSKDYNQRLWAWEGWRSEVGKQLRPLYEEYVVLKNEMARANNYEDYGDYWRGDYEAEGPSGYDYSRDQLIEDVERTFAEIKPLYEHLHAYVRAKLMDTYPSHINPTGCLPAHLLGDMWGRFWTNLYSLTVPFGQKPNIDVTDAMVDQSWDAKRIFEEAEKFFVSVGLPNMTQGFWENSMLTEPGDGRKVVCHPTAWDLGKGDFRIKMCTKVTMDDFLTAHHEMGHIQYDMAYAVQPYLLRNGANEGFHEAVGEIMSLSAATPNHLKAIGLLPPDFYEDSETEINFLLKQALTIVGTLPFTYMLEKWRWMVFKGEIPKEEWMKKWWEMKREIVGVVEPVPHDETYCDPAALFHVANDYSFIRYYTRTIYQFQFQEALCQTAKHEGPLHKCDISNSTEAGQKLLQMLSLGKSEPWTLALERIVGVKNMDVRPLLNYFEPLFTWLKDQNKNSFVGWSTNWSPYADQSIKVRISLKSALGEKSYEWNDNEMYLFQSSVAYAMRVYFLKAKNQTILFGEEDVWVSDLKPRISFNFFVTSPKNASDIIPRTDVEEAIRMSRSRINDAFRLDDNTLEFLGIQPTLGPPYQPPVT
B7: pig ACE2 ectodomain fused with mFc (Fc fusion)
chain: QSTTEELAKTFLEKFNLEAEDLAYQSSLASWNYNTNITDENIQKMNDARAKWSAFYEEQSRIAKTYPLDEIQTLILKRQLQALQQSGTSGLSADKSKRLNTILNTMSTIYSSGKVLDPNNPQECLVLEPGLDEIMENSKDYSRRLWAWESWRAEVGKQLRPLYEEYVVLENEMARANNYEDYGDYWRGDYEVTGTGDYDYSRNQLMEDVERTFAEIKPLYEHLHAYVRAKLMDAYPSRISPTGCLPAHLLGDMWGRFWTNLYPLTVPFGEKPSIDVTEAMVNQSWDAIRIFEEAEKFFVSIGLPNMTQGFWNNSMLTEPGDGRKVVCHPTAWDLGKGDFRIKMCTKVTMDDFLTAHHEMGHIQYDMAYAIQPYLLRNGANEGFHEAVGEIMSLSAATPHYLKALGLLPPDFYEDSETEINFLLKQALTIVGTLPFTYMLEKWRWMVFKGEIPKEQWMQKWWEMKREIVGVVEPLPHDETYCDPACLFHVAEDYSFIRYYTRTIYQFQFHEALCRTAKHEGPLYKCDISNSTEAGQKLLQMLSLGKSEPWTLALENIVGVKTMDVKPLLSYFEPLLTWLKAQNGNSSVGWNTDWTPYADQSIKVRISLKSALGKEAYEWNDNEMYLFRSSIAYAMRNYFSSAKNETIPFGAEDVWVSDLKPRISFNFFVTSPANMSDIIPRSDVEKAISMSRSRINDAFRLDDNTLEFLGIQPTLGPPDEPP
B8: Chinese hamster ACE2 ectodomain fused with mFc (Fc fusion)
chain: QSIIEEQAKTFLDKFNQEAEDLSYQSALASWNYNTNITEENAQKMNEAAAKWSAFYEEQSKLAKNYSLQEVQNLIIKRQLQALQQSGSSALSADKNKQLNTILNTMSTIYSTGKVCNPKNPQECLLLEPGLDDIMATSTDYNERLWAWEGWRAEVGKQLRPLYEEYVVLKNEMARANNYKDYGDYWRGDYEAEGADGYNYNGNQLIEDVERTFKEIKPLYEQLHAYVRTKLMDTYPSFISPTGCLPAHLLGDMWGRFWTNLYPLTVPFGQKPNIDVTDAMVNQGWDAERIFKEAEKFFVSVGLPHMTQGFWGNSMLTDPGDDRKVVCHPTAWDLGKGDFRIKMCTKVTMDNFLTAHHEMGHIQYDMAYATQPFLLRNGANEGFHEAVGEIMSLSAATPKHLKSIGLLPSNFHEDNETEINFLLKQALTIVGTLPFTYMLEKWRWMVFKGDIPKEKWMEKWWEMKREIVGVVEPLPHDETYCDPAALFHVSNDYSFIRYYTRTIYQFQFQEALCQAAKHDGPLHKCDISNSTEAGQKLLNMLRLGKSEPWTLALENVVGARNMDVRPLLNYFEPLSVWLKEQNKNSFVGWNTDWSPYADQSIKVRISLKSALGENAYEWNDNEMYLFRATVAYAMRVYFAKNKTQTVLFGVEDIRVSDLKPRVSFNFFVTSPQNVSDIIPRNEVEEAVRFSRGRINDVFGLDDNSLEFLGINPTLAPPYQPPVT

What follows are binders tested against SARS-CoV-2 PT-RBD (SARS-CoV-2 prototype, UniProt P0DTC2) (assay: SPR).
Binder B1 has a Kd of 424 nM.
With B2 the Kd was 299 nM.
B3 was tested, and the Kd was 59.2 nM.
Binder B4 has a Kd of 74.8 nM.
In the case of B5, the Kd is reported as 451 nM.
For B6, the Kd was 64.4 nM.
B7 was tested, and the Kd was 175 nM.
B8 showed a Kd of 69.4 nM.
